According to US20140329275A1, “BIOCATALYSIS CELLS AND METHODS” (REGENTS OF THE UNIVERSITY OF MINNESOTA, priority 2011, published 2014):

Substrate: CC(C)CC=O
Experiment: Enzymatic assay of PadA
Assay type: biochemical, E. coli
Conditions: other: 0.5 mM NAD+, pH 8.0, 25 nM PadA
Experimental: Protein concentration was measured by UV absorbance at 280 nm. […] Enzymatic reactions were initiated by adding 25 nM PadA. The reactions were monitored by measuring the UV absorbance at 340 nm (extinction coefficient, 6.22 mM^−1 cm^−1) as a consequence of NADH generation.

B1: PadA (Escherichia coli K-12) (protein)
chain: MTEPHVAVLSQVQQFLDRQHGLYIDGRPGPAQSEKRLAIFDPATGQEIASTADANEADVDNAVMSAWRAFVSRRWAGRLPAERERILLRFADLVEQHSEELAQLETLEQGKSIAISRAFEVGCTLNWMRYTAGLTTKIAGKTLDLSIPLPQGARYQAWTRKEPVGVVAGIVPWNFPLMIGMWKVMPALAAGCSIVIKPSETTPLTMLRVAELASEAGIPDGVFNVVTGSGAVCGAALTSHPHVAKISFTGSTATGKGIARTAADHLTRVTLELGGKNPAIVLKDADPQWVIEGLMTGSFLNQGQVCAASSRIYIEAPLFDTLVSGFEQAVKSLQVGPGMSPVAQINPLVSRAHCDKVCSFLDDAQAQQAELIRGSNGPAGEGYYVAPTLVVNPDAKLRLTREEVFGPVVNLVRVADGEEALQLANDTEYGLTASVWTQNLSQALEYSDRLQAGTVWVNSHTLIDANLPFGGMKQSGTGRDFGPDWLDGWCETKSVCVRY
notes: made in house
Q: With B1 as the protein, how does the Km read?
A: 1946 µM

Q: What about the kcat of the same protein?
A: 18.6 s⁻¹
